The results in this text go back to patent CN113480646A (INST BIOPHYSICS CAS; UNIV PEKING FIRST HOSPITAL, dated 2021).

Experiment [1] concerns the target T1, 内源过表达的组蛋白H1.4(WT H1.4), Flag fusion expressed from pFLAG-CMV-WT H1.4 in NIH 3T3 cells.
T1 construct: Overexpressed in mouse NIH 3T3 cells; Tested as SDS cell lysate (50 ug total protein) by Western blot; also called 野生型H1.4
Put plainly: Western blot, lysate of transfected NIH 3T3 cells. (In western blotting, separated proteins are transferred to a membrane and probed.)

Experiment [2] deals with T2, 体外纯化的H1.4移码突变蛋白(H1.4 K157E fs*), fusion protein expressed from pET-28a-H1.4 K157E.
T2 construct: Expressed in E. coli BL21(DE3) and purified; 100 ng was loaded, denatured, for the Western blot; also called Lys157Glu fs*39; H1.4 K157E移码突变体
T2 chain: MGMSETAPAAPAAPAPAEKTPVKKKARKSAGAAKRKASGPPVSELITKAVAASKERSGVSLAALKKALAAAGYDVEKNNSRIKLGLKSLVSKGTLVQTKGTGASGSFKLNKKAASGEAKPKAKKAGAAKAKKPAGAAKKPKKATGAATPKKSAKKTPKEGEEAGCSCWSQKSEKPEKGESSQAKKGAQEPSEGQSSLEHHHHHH
The experiment in a line: Western blot, 100 ng purified protein.

Experiment [3] addresses T3, 体外纯化的组蛋白H1.4(WT H1.4), fusion protein expressed from pET-28a-WT H1.4 (Homo sapiens (Human), UniProt P10412 1-219).
T3 construct: Expressed in E. coli BL21(DE3) and purified; 100 ng was loaded, denatured, for the Western blot; also called 野生型H1.4
The experiment in a line: Western blot, purified protein.

B1: 特异性结合H1.4移码突变蛋白的单克隆抗体 (hybridoma cell line A1) (antibody, mouse IgG1, kappa, V domains shown)
VH: QIQLVQSGPELKKPGETVKISCKASGYTFTDYSMQWMKQAPGKGLKWMGWIDTGTGEPSYADDFKGRFAFSLETSASTAYLQINNLKNEDTATYFCARRSYGYFAFWGQGTLVAVSA
VL: DVVMTQTPLSLPVSLGDQASISCRSSQNIVHVNGNTYLEWYLQKPGQSPKLLIYKVSNRFSGVPDRFSGSGSGTEFTLKISRVEAEDLGVYYCFQGSHVPFTFGAGTKLELKR
notes: also called H1.4移码突变抗体; H1.4移码突变的抗体
Turning to B1, the binding result is reported as “no binding (tested: 50μg total lysate protein)” in experiment [1], “binds” in experiment [2] and “no binding (tested: 100ng)” in experiment [3].
